Data on 1 substance can be found in patent US5580958.

The data set concerns the target PU.1 (PU pECE) (Mus musculus) (UniProt P17433). Description: cell_activity. To be noted: 8 copies upstream of TK-CAT in HeLa; 1 copy 3.5-3.6 fold, 4 copies 3.9-4.3 fold.

PU-1 (SV40 enhancer PU box) returned an activity of 18.3 fold.
